Source: patent publication US20100184959A1 (AstraZeneca / MedImmune, published 2010)

Each binder was assayed against T1, human C1q (human, UniProt P02745 23-245; P02746 28-253; P02747 29-245) (assay: RIA, 35S-labelled Fc on coated C1q).
T1 construct: Human C1q (Sigma) in the ELISA; hC1q coated at 100 nM in the RIA; also called hC1q
Text: IgG1 Fc variants arising from round three outputs of Fcγ1 selections against human C1q using ribosome display, were screened for binding using the primary RIA as described in Jermutus et al. (2001, PNAS 98(1): 75-80). In brief, the Fc region from the plasmid for each variant (96 well format) was PCR amplified to produce a linear DNA template. This template was gel purified and reamplified attaching the T7 promoter sequence for T7 directed in vitro transcription and the resulting mRNA purified on G25 Sephadex columns. For each variant, in vitro translations in the presence of 35S-labelled methionine was performed at 37° C. for 40 mins. The translations were stopped with PBS with 0.05% Tween 20. The translation mixture was incubated on a plate coated with 100 nM hC1q for 2 hours at room temperature. Plates were washed three times in PBS with 0.05% Tween 20 and three times in PBS. The remaining radioactivity was eluted with 0.1M triethylamine and quantified by liquid scintillation counting.

T1 sequence (P02745 23-245 limits assumed, chain 1 of 3): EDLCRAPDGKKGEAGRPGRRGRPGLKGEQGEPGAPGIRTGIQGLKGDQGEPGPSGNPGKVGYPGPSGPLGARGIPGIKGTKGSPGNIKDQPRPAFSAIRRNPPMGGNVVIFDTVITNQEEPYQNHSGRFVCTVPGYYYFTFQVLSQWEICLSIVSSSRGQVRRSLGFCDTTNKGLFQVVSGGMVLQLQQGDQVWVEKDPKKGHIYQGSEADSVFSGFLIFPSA
T1 sequence (P02746 28-253 limits assumed, chain 2 of 3): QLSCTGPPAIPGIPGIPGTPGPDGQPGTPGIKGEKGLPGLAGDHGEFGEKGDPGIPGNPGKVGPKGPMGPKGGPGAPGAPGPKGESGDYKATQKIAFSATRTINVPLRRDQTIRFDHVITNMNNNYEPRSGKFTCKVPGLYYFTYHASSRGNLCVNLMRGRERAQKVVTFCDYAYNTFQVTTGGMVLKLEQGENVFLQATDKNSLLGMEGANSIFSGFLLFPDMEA
T1 sequence (P02747 29-245 limits assumed, chain 3 of 3): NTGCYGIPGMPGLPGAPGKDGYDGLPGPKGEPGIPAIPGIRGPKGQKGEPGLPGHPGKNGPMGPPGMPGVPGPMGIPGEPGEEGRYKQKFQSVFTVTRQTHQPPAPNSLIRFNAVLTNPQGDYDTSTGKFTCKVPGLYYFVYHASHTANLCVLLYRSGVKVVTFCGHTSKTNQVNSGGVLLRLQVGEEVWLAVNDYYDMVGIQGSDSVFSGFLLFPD

Binder	RIA for C1q [fold over wild-type]
Fc polypeptide variant 3C11 (Fcγ1, in vitro translated) (other, Fc region only, in vitro translated with 35S-methionine for RIA) AHTCPPCPAPELLGGPSVFLFPPKPKDTLMISRTPEVTCVVVDVSHEDPEVKFNWYVDGVEVHNAKTKPREEQYNSTYRVVSVLTVLHQDWLNGKEYKCKVSNKALPAPIEKTISKAKGQPREPRVYTLPPSREEMTKYQVSLTCLVKGFYPSDIAVEWESNGQPENNYKTTPPVLDSDGSFFLYSKLTVDKSRWQQGNVFSCSVMHEALHNHYTQRSLSLSPGK	1.2
Fc polypeptide variant 2A11 (Fcγ1, in vitro translated) (other, Fc region only, in vitro translated with 35S-methionine for RIA) AHTCPPCPAPELLGGPSVFLFPPKPKDTLMISRTPEVTYVVVDVSHEDPEVKFNWYVDGVEVHNAKTEPREEQYNSTYRVVSVFTVLHRDWLNGKEYKCKVSNKALPAPIGKTISKAKGQPREPQVYTLPPSREEMTKNQVSLTCLVKGFYPSDIAVEWESNGQPENNYKTTPPVLDSDGSFFLYSKLTVDKSRWQQGNVFSCSVMHEALHNHYTLKSLSLSPGK	2.4
Fc polypeptide variant 2C06 (Fcγ1, in vitro translated) (other, Fc region only, in vitro translated with 35S-methionine for RIA) AHTCPPCPAPELLGGPSVFLFPPKPKDTLMISRTPEVTCVVVDVSHEDPEVKFNWYVDGVGVHNAKTKPREEQYNSTYRVVSVLTVLHQDWLKGKEYKCKVSNKALPAPIGKTISKAKGQPQEPQVYTLPPSREEMTKNQVSPTCLVKGFYPSDIAVEWESNGQPENNYKTTPPVLDSDGSFFLYSKLTVDKSRWQQGNVFSCSVMHEALHNHYTQKSLTLSPGK	1.4
Fc polypeptide variant 2H06 (Fcγ1, in vitro translated) (other, Fc region only, in vitro translated with 35S-methionine for RIA) AHTCPPCPAPELLGGPSVFLFPPKPKDTLMISRTPEVTCVVVDVSHGDPEVKFNWHVDGVEVHNAKTKPREEQYNSTYRVVSVLTVLHQDWLNGKEYKCKVSSKALPAPIEKTISKAKGQPREPQVYTLPPSREEMTKNQVSLTCLVRGFYPSDIAVEWESNGQPENNYKTTPPVLDSDGSFFLYSKLTVDKSRWQQGNVFSCSVMHEALHNHYTQKSLSLSPGK	1.2

These binders were tested against T2, human FcγRIIIa V158 allotype, extracellular domain (human, UniProt P08637 17-208) (assay: RIA, 35S-labelled Fc on coated receptor).
T2 construct: extracellular domain; expressed in HEK-EBNA cells; also called hFcγRIIIa; CD16; not shown: Flag10His tag of the vector
T2 sequence (P08637 17-208 F176V): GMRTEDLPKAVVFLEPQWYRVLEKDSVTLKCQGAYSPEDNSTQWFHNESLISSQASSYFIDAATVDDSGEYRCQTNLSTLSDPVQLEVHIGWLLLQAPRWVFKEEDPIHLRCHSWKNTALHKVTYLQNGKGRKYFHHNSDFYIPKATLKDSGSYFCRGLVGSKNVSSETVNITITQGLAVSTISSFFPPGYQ
Text: Fc polypeptide variants were screened for binding to FcγRIIIa using a RIA (radio immunoassay) as described in Jermutus et al. (2001, PNAS 98(1): 75-80). The Fc region from the plasmid for each variant was PCR amplified to produce a linear DNA template. This template was purified and a T7 promoter sequence attached at the 5′ end to enable in vitro transcription. The resulting mRNA was purified using G25 Sephadex™ columns. For each variant, in vitro translations in the presence of 35S-labelled methionine were set up at 37° C. for 40 min. The translations were stopped using PBS with 0.05% Tween 20. The translation mixture was added to a plate coated with 100 nM hFcγRIIIa and incubated for 2 hours at room temperature. The plates were washed three times in PBS with 0.05% Tween 20 and three times in PBS. The bound protein was eluted with 0.1M triethylamine and the radiolabel quantified by liquid scintillation counting.

Binder	RIA for RIIIa (V158) [fold over wild-type]
Fc polypeptide variant 136D04b (Fcγ1, in vitro translated) (other, Fc region only, in vitro translated with 35S-methionine for RIA) AHTCPPCPAPELLGGPSVFLFPPKPKDTLMISRTPEVTCVVVDVSHEDPEVKFNWYVDGVEVHNAKTKPREEQYNSTYRVVSVLTVLHQDWLNGKEYKCKVSNKALPAPIEKIISKAKGQPREPQVYTLPPSREEMTKNQVSLTCLVKGFYPSDIAVEWESNGQPENNYKTTPPVLDSDGSFFLYSKLTVDMSRWQQGNVFSCSVMHEALHNHYTQKSLSLSPGK	2.3
Fc polypeptide variant 110B09 (Fcγ1, in vitro translated) (other, Fc region only, in vitro translated with 35S-methionine for RIA) AHTCPPCPAPELLGGPSVFLFPPKPKDTLMISRTPEVTCVVVDVSHEDPEVKFDWYVDGVEVHNAKTKPQEEQYNSTYRVVSALTVLHQDWLNGKEYKCKVSNKALPAPIEKTISKAKGQPREPQVYTLPPSREEMTKNQVSLTCLVKGFYPSDVAVEWESNGQPENNYKTAPPVLDSDGSFFLYSKLTADKSRWQQGNVFSCSVMHEALHNHYTQESLSLSPGK	4.4
Fc polypeptide variant 110H08 (Fcγ1, in vitro translated) (other, Fc region only, in vitro translated with 35S-methionine for RIA) AHTCPPCPAPELLGGPSVFLFLPEPKDTLMISRTPEVTCVVVDVSHEDPEVKFNWYVDGVEVHNAKTKPREEQYNSTYRVVSVLTVLHQDWLNGKEYKCKVSNKALPAPIEKTISKAKGQPREPQVYTLPPSREEMTKNQVSLTCLVKGFYPSDIAVEWESNGQPENNYKTTPPVLGSDGSFFLYSRLTVDKSRWQQGNVFSCSVMHEALHNHYTQKSLSLSPGK	2.7
Fc polypeptide variant 121F02 (Fcγ1, in vitro translated) (other, Fc region only, in vitro translated with 35S-methionine for RIA) AHTCPPCPAPELLGGPSVFLSPPKLKDTLMISRTPEVTCVVVVASHEDPEVKFNWYVDGVEVHNAKTKPREEQYNSTYRVVSVLTVLHQDWLNGKEYKCKVSNKALPAPIEKTISKAKGQPREPQVYTLPPSREEMTKNQVSLTCLVKGFYPSDIAVEWENNGQPENNYKTTPPVLDSDGSFFLYSKLIVDKSRWQQGNVFSCSVMHEALHNHYTQKSLSLSPGK	1.7
Fc polypeptide variant 125B01 (Fcγ1, in vitro translated) (other, Fc region only, in vitro translated with 35S-methionine for RIA) ANTCPPCPAPELLGGPSVFLLPPKPKDTLMISRTPEVTCVVVDVSHEDPEVKFNWYVDGVEVHNAKTKPREEQYNSTYRVVSVLTVLHQDWLNGKEYKCKVSNKALPAPIEKTISKAKGQPREPQVYTLPPSREEMTKNQVSLTCLVKGFYPSDIAVEWESNGQPENNYKATPPVLDSDGSFFLYSKLTVDKSRWQQGNVFSCSVMHEALPNHYTQKSLSLSPGK	1.3
Fc polypeptide variant 125E05 (Fcγ1, in vitro translated) (other, Fc region only, in vitro translated with 35S-methionine for RIA) AHTCPPCPAPELLGGPSAFLFPPKPKDTLMISRTPEVTCVVVDVGHEDPEVKFNWYVDGVEVHNAKTKPREEQYNSTYRVVSVLTVLHQDWLNGKEYKCKVSNKALPAPIEKTISKAKEQPREPQVYTLPPSRGEMTKNQVSLTCLVKGFYPSDIAVEWESNGQPENNYKTTPPVLDSDGSFFLYSKLTVDKSRWQQGNVFSCSVMHEALHNHYTQKSLSLSPGK	4.7
Fc polypeptide variant 125H10 (Fcγ1, in vitro translated) (other, Fc region only, in vitro translated with 35S-methionine for RIA) AHTCPPCPAPELLGGPSVFLFPPKPKDTLTISRTPEVTCVVVDVSHEDPEVKFNWYVDGVEVHNAKTKLREEQYNSTYRVVSVLTVLHQDWLNGKEYKCKVSNKALPAPIEKTISKAKGQPREPQVYTLAPSWEEMTKNQVSLTCLVKGFYPSDIAVEWESNGQPENDYKTTPPVLDSDGSFFLYGKLTVDKSRWQQGNVFSCFVMHESLHNHYTQKSLSLSPGK	1.7
Fc polypeptide variant 126F07 (Fcγ1, in vitro translated) (other, Fc region only, in vitro translated with 35S-methionine for RIA) AHTCPLCPAPELLGGPSVFLFPPKPKDTLMISRTPEVTCVVVDVSHEDPEVKFNWYVDGVEVHNAKAKPREEQYNSTYRVVSVLTVLHQDWLNGKEYKCKVSNKALPAPIEKTISKAKGQPREPQVYTLPPSREEMTKNQVSQTCLVKGFYPSDIAVEWESNGQPESNYKTTPPVLDSDGSFFLYSKLTVDKSRWQQGNVFSCSVMHEALHNHYTQKGLSLSPGK	1.9
Fc polypeptide variant 126G05 (Fcγ1, in vitro translated) (other, Fc region only, in vitro translated with 35S-methionine for RIA) AHTCPPCPAPELLGGPSVLLFPPKPKDTLMISRTPEVTCVVVDVSHEDPEAKFNWYVDGVEVHNAKTKPREEQYNSTYRVVSVLTVLHQDWLNGKEYKCKVSNKALPAPIEKTISKAQGQPREPQVYTLPPSREEMTKNQVSLTCLVKGFYPSDIAVEWESNGQPENNYKTTPPVLDSDGSFFLYSKLTVDKSRWQQGNVFSCSVMHEALHNHYTQKSFSLSPGK	1.8
Fc polypeptide variant 135A09 (Fcγ1, in vitro translated) (other, Fc region only, in vitro translated with 35S-methionine for RIA) AHTCPPCPAPELLGGPSVFLFPPKPKDTLMISRTPEVTCVVVDVSHKDPEVKFNWYVDGVEVHNAKTKPREEQYNSTHRVVSVLTVLHQDWLNGKEYKCKVSNKALPAPIEKTISKAKGRPREPQVYTLPPSREEMTKNQVSLTCLVKGFYPSDIAVEWESNGQPENNYKTTPPVLDSDGSFFLYSKLTVDKSRWQQGNIFSCSVMHEALHNHYTQKSLSLSPAK	3.4
Fc polypeptide variant 135C09 (Fcγ1, in vitro translated) (other, Fc region only, in vitro translated with 35S-methionine for RIA) AHACPPCPAPELLGGPSVFLFPPKPKDTLMISRTPEVTCVVVDVSHEDPEVKFNWYVDGVEVHNAKTKPREEQYNSTYCVVGVLTVLHQNWLDGKEYKCKVSNKALPAPIEKTISKAKGQPREPQVYTSPPSREEMTKNQVSLTCLVKGFYPSDIAVEWESNGQPENNYKTTPPVLDSDGSFFLYSKLTVDKSRWQQGSVFSCSVMHEALHNHYTQKSLSLSPGK	1.7
Fc polypeptide variant 135E07 (Fcγ1, in vitro translated) (other, Fc region only, in vitro translated with 35S-methionine for RIA) AYTCPPCSAPELLGGPSVFLFPPKPKDTLMISRTPEVTCVVVDVSHEDPEVKFNWYVDGVEVHNAKTKPREEQYNSTYRVVSVLTVLHQDWLNGKEYKCKASNKALPAPIDKTISRAKGQPREPQVYTLPPSREEMTKNQVCLTCLVKGFYPSDIAVEWESNGQPENNYKTTPPVLDSDGSFFLYSKLTVDKSRWQQGNVFSCSVMHEALHNHYTQKSLSLSPGK	1.7
Fc polypeptide variant 136D04a (Fcγ1, in vitro translated) (other, Fc region only, in vitro translated with 35S-methionine for RIA) AHTCPPCPAPELLGGPSVFLFPPKPKDTLMISRTPEVTCVVVDVSHEDPEVKFNWYVDGVEVHNAKTKPREEQYNSTYRVVSVLTVLHQDWLNGKEYKCKVSNKALPAPIEKIISKAKGQPREPQVYTLPPSREEMTKNQVSLTCLVKGFYPSDIAVEWESNGQPENNYKTTPPVLDSDGSFFLYSKLTVDMSRWQQGNVFSCSVMHEALHNHYTQKSLSLSRGK	2.3
Fc polypeptide variant 136G11 (Fcγ1, in vitro translated) (other, Fc region only, in vitro translated with 35S-methionine for RIA) AHTCPPCPAPELLGGPSVFLFPPKAKDTLMISRTPKVTCVVVDVSHEDPEVKFNWYVNGVEVHNARTKPREEQYDSAYRVVSVLTVLHQDWLNGKEYKCEVSNKALPAPIEKTISKAKGRPREPQVYTLPPAREEMTKNQVSPTCLVKGFYPSDIAVEWESNGQPENNYKTTPPVLDSDGSFFLYSKLTVDKSRWQQGNVFSCSVMHEALHNHYTQKSLSLSPGK	2.3
